Test results published in patent US20190142971A1, “FORMULATION AND DELIVERY OF MODIFIED NUCLEOSIDE, NUCLEOTIDE, AND NUCLEIC ACID COMPOSITIONS” (ModernaTX, Inc., priority 2013, published 2019).
Like-named read-outs stand apart in the source and are kept apart here.

How the values were obtained:
[1] = Example 64A: Factor IX mRNA in serum-free media, peptides by MALDI; format: cell-based
Source text: The cell culture supernatant was collected and subjected to trypsin digestion before undergoing 2-dimensional HPLC separation of the peptides. Matrix-assisted laser desorption/ionization was used to detect the peptides. 8 peptides were detected and 7 of the detected peptides are unique to Factor IX.

mice [2] = conditions: for Serum Concentration 8-12 hours after administration: Factor IX; for Factor IX Protein Expression, Conc: LNP IV, mice, 8 hrs
mouse myoblast (C2C12) = assay: Example 44: signal sequence exchange, secreted G-CSF ELISA (Table 70); format: cell-based; conditions: MM (mouse myoblast C2C12), 250 ng mRNA, supernatant 24 hrs
Source text: (§1) These variants included the G-CSF constructs encoding either the wild-type N terminal secretory signal peptide sequence ([…]; SEQ ID NO: 19), no secretory signal peptide sequence, or secretory signal peptide sequences taken from other mRNAs. These included sequences where the wild type GCSF signal peptide sequence was replaced with the signal peptide sequence of either: human α-1-anti trypsin (AAT) ([…]; SEQ ID NO: 20), human Factor IX (FIX) ([…]; SEQ ID NO: 21), human Prolactin (Prolac) ([…]; SEQ ID NO: 22), or human Albumin (Alb) ([…]; SEQ ID NO: 23).
(§2) 250 ng of modified mRNA encoding each G-CSF variant was transfected into HEK293A (293A in the table), mouse myoblast (MM in the table) (C2C12, CRL-1772, ATCC) and rat myoblast (RM in the table) (L6 line, CRL-1458, ATCC) cell lines in a 24 well plate using 1 ul of Lipofectamine 2000 (Life Technologies), each well containing 300,000 cells. […] The data shown in Table 70 reveal that cells transfected with G-CSF mmRNA encoding the Albumin signal peptide secrete at least 12 fold more G-CSF protein than its wild type counterpart.

HEK293A = assay: as above; format: cell-based; conditions: 293A, 250 ng mRNA, Lipofectamine 2000, supernatant 24 hrs
Source text: as §1, §2

rat myoblast (L6 line) = assay: as above; format: cell-based; conditions: RM (rat myoblast L6), 250 ng mRNA, supernatant 24 hrs
Source text: as §1, §2

mice [3] = assay: Example 39: Factor IX mmRNA IM in mice, serum Factor IX at 13 hours; format: in vivo; conditions: 2×100 ug/mouse IM
Description: Human Factor IX mmRNA (Gen1; fully modified 5-methycytosine and pseudouridine) formulated in formulation buffer was delivered to mice via intramuscular injection.
The mice were bled at 13 hours after the intramuscular injection to determine the concentration of human the polypeptide in serum in pg/mL.

HEK 293A cells = assay: Example 64B: Factor IX mRNA half-life by quantitative Real-Time PCR; format: cell-based, Human; conditions: HEK293
Description: The transfection complexes were removed 3 hours after transfection. […] Total RNA was isolated and used for cDNA synthesis.

Sprague Dawley rats = assay: Example 60: G-CSF/Factor IX mRNA IM in rats, serum G-CSF ELISA (Table 94); format: in vivo
Description: Protein production of modified mRNA was evaluated by delivering modified G-CSF mRNA or modified Factor IX mRNA to female Sprague Dawley rats (n=6). […] Blood was collected 8 hours after injection and the G-CSF protein level in serum was measured by ELISA.

mice [4] = assay: Example 40: multi-site IM/SC G-CSF mRNA in mice, neutrophil count (Table 65); format: in vivo; conditions: day 3
Description: Injection of four doses or 2×50 ug (two sites) daily for three days (24 hrs interval) was performed. The fourth dose was administered 6 hrs before blood collection and CBC analysis. […] The mice were bled at 72 hours after the first mRNA injection (6 hours after the last mRNA dose) to determine the effect of mRNA-encoded human G-CSF on the neutrophil count. The dosing regimen is shown in Table 65 as are the resulting neutrophil counts (thousands/uL). In Table 65, an asterisks (*) indicate statistical significance at p<0.05.

human PBMC [5] = assay: Example 45: PBMC transfection, IFN-alpha ELISA (Table 72); format: cell-based
Description: (§3) The plates were then incubated at 37 C.
(§4) Each condition was done in duplicate.
(§5) Shown in Tables 71 and 72 are the average from 2 separate PBMC donors of the G-CSF and IFN-alpha production over time as measured by specific ELISA.

BJ fibroblasts = conditions: for IFN-beta / IL-6: 250 ng transfected daily for 5 days
human PBMC [6] = assay: Example 45: PBMC transfection, G-CSF ELISA (Table 71); format: cell-based
Description: as §3, §4, §5

BALB/C mice = assay: Example 59: G-CSF mRNA IM in mice, serum human G-CSF and mouse IFN-alpha ELISA (Table 93); format: in vivo
C57/BL6 mice = assay: Example 32C: G-CSF lipoplex vs saline IM, SC in mice, serum G-CSF ELISA at 13 hours (Table 57); format: in vivo; conditions: IM or SC
Description: A formulation containing 100 μg of either modified human G-CSF mRNA lipoplexed with 30% by volume of RNAIMAX™ with a 5-methylcytosine (5mc) and a pseudouridine (ψ) modification (G-CSF-Gen1-Lipoplex), modified human G-CSF mRNA with a 5mc and ψ modification in saline (G-CSF-Gen1-Saline), modified human G-CSF mRNA with a N1-5-methylcytosine (N1-5mc) and a ψ modification lipoplexed with 30% by volume of RNAIMAX™ (G-CSF-Gen2-Lipoplex), modified human G-CSF mRNA with a N1-5mc and ψ modification in saline (G-CSF-Gen2-Saline), modified luciferase with a 5mc and ψ modification lipoplexed with 30% by volume of RNAIMAX™ (Luc-Lipoplex), or modified luciferase mRNA with a a 5mc and w modification in saline (Luc-Saline) was delivered intramuscularly (I.M.) or subcutaneously (S.C.) and a control group for each method of administration was giving a dose of 80 uL of the formulation buffer (F. Buffer) to C57/BL6 mice. 13 hours post injection serum and tissue from the site of injection were collected from each mouse and analyzed by G-CSF ELISA to compare human G-CSF protein levels. The results of the human G-CSF protein in mouse serum from the intramuscular administration and the subcutaneous administration results are shown in Table 57.

Factor IX: modified mRNA encoding human Factor IX, SEQ ID NO: 8, Cap1, fully modified with 5-methylcytosine and pseudouridine
Factor IX protein expression (peptides by MALDI) [1]: able to express full-length Factor IX protein | Factor IX protein expression determined by ELISA (mice [2]; 100 ug dose group): 3000 to 11000 ng/mL | Serum Concentration 8-12 hours after administration (mice [2]; IM, 2 × 100 ug): ~1.6 ng/mL | Serum Concentration 8-12 hours after administration (mice [2]; IV (LNP), 1 ug): ~40 ng/mL | Serum Concentration 8-12 hours after administration (mice [2]; IV (LNP), 10 ug): ~400 ng/mL | Serum Concentration 8-12 hours after administration (mice [2]; IV (LNP), 100 ug): ~3,000-10,000 ng/ml | Factor IX Protein Expression, Conc (mice [2]; dose 10 ug): 383.04 ng/mL | Factor IX Protein Expression, Conc (mice [2]; dose 100 ug, dilution factor 50x): 3247.75 ng/mL | Factor IX Protein Expression, Conc (mice [2]; dose 100 ug, dilution factor 250x): 11177.20 ng/mL | secreted G-CSF protein (mouse myoblast (C2C12)): 6175 pg/mL | secreted G-CSF protein (HEK293A): 11675 pg/mL | secreted G-CSF protein (rat myoblast (L6 line)): 11675 pg/mL | Factor IX in serum (mice [3]): 1600 pg/mL | half-life of mRNA (HEK 293A cells): 8 to 10 h

B1: G-CSF Gen 2: G-CSF mRNA (SEQ ID NO: 4) fully modified with 5-methylcytosine and N1-methylpseudouridine (nucleic acid)
chain: GGGAAAUAAGAGAGAAAAGAAGAGUAAGAAGAAAUAUAAGAGCCACCAUGGCCGGUCCCGCGACCCAAAGCCCCAUGAAACUUAUGGCCCUGCAGUUGCUGCUUUGGCACUCGGCCCUCUGGACAGUCCAAGAAGCGACUCCUCUCGGACCUGCCUCAUCGUUGCCGCAGUCAUUCCUUUUGAAGUGUCUGGAGCAGGUGCGAAAGAUUCAGGGCGAUGGAGCCGCACUCCAAGAGAAGCUCUGCGCGACAUACAAACUUUGCCAUCCCGAGGAGCUCGUACUGCUCGGGCACAGCUUGGGGAUUCCCUGGGCUCCUCUCUCGUCCUGUCCGUCGCAGGCUUUGCAGUUGGCAGGGUGCCUUUCCCAGCUCCACUCCGGUUUGUUCUUGUAUCAGGGACUGCUGCAAGCCCUUGAGGGAAUCUCGCCAGAAUUGGGCCCGACGCUGGACACGUUGCAGCUCGACGUGGCGGAUUUCGCAACAACCAUCUGGCAGCAGAUGGAGGAACUGGGGAUGGCACCCGCGCUGCAGCCCACGCAGGGGGCAAUGCCGGCCUUUGCGUCCGCGUUUCAGCGCAGGGCGGGUGGAGUCCUCGUAGCGAGCCACCUUCAAUCAUUUUUGGAAGUCUCGUACCGGGUGCUGAGACAUCUUGCGCAGCCGUGAAGCGCUGCCUUCUGCGGGGCUUGCCUUCUGGCCAUGCCCUUCUUCUCUCCCUUGCACCUGUACCUCUUGGUCUUUGAAUAAAGCCUGAGUAGGAAG
modifications: 5-methylcytosine, N1-methylpseudouridine
human G-CSF protein production, Gen 2 vs Gen 1 chemistry (Sprague Dawley rats; 400 ug IM, rats, 8 hours): human G-CSF protein production is improved | G-CSF protein in rat serum (Sprague Dawley rats; I.M., 400 ug in 100 ul, 5% sucrose, 8 hours after injection): 64.72 pg/mL | increase in neutrophil count above control (mice [4]; intramuscular): two fold increase | increase in neutrophil count above control (mice [4]; subcutaneous): two fold increase | IFN-alpha / cytokine production (human PBMC [5]): did not significantly increase cytokines | time to cytokine response (IFN-beta, IL-6) (BJ fibroblasts): 3 to 5 days | IFN-beta (BJ fibroblasts; 6 hours): 0 pg/mL | IL-6 (BJ fibroblasts; 6 hours): 3337 pg/mL | IFN-beta (BJ fibroblasts; Day 1): 0 pg/mL | IL-6 (BJ fibroblasts; Day 1): 3733 pg/mL | IFN-beta (BJ fibroblasts; Day 2): 150 pg/mL | IL-6 (BJ fibroblasts; Day 2): 974 pg/mL | IFN-beta (BJ fibroblasts; Day 3): 213 pg/mL | IL-6 (BJ fibroblasts; Day 3): 4972 pg/mL | IFN-beta (BJ fibroblasts; Day 4): 1400 pg/mL | IL-6 (BJ fibroblasts; Day 4): 4122 pg/mL | IFN-beta (BJ fibroblasts; Day 5): 350 pg/mL | IL-6 (BJ fibroblasts; Day 5): 2906 pg/mL | G-CSF production (human PBMC [6]): highest level of G-CSF production | Protein: Cytokine Ratio (PC Ratio) (BALB/C mice; G-CSF / IFN-alpha): 748 | human G-CSF expression in mouse serum (BALB/C mice; IM, 8 hours): resulted in human G-CSF expression in mouse serum | mouse IFN-alpha in the serum (cytokine response) (BALB/C mice; IM, 8 hours): no detectable IFN-alpha | human G-CSF protein production relative to 5-methylcytosine/pseudouridine mRNA (C57/BL6 mice): increased human G-CSF protein production
